Results published in patent US8951962B2, “Modified exendins and exendin agonists” (priority 1999, dated 2015).
pEC50: −log10 of the molar value. No end group written: not given here. PEG = not defined here

Columns and labels:
[1] = HPLC analysis of plasma for circulating metabolites after large intravenous doses; type: in vivo; conditions: plasma of animals after large intravenous doses
[2] = system: NIH:Swiss mice; assay: Food intake (appetite suppression) in normal mice; type: in vivo; conditions: inhibition of food intake over 30 min, intraperitoneal injection, food deprived NIH:Swiss mice
Method: All mice (NIH:Swiss mice) were housed in a stable environment of 22 (±2)° C., 60 (±10) % humidity and a 12:12 light:dark cycle; with lights on at 0600. […] All experiments were conducted between the hours of 0700 and 0900.

[3] = target: T1, GLP-1 receptor (RINm5f membranes) (Rattus norvegicus, UniProt P32301); assay: Cyclase activation study (GLP-1 Cyclase), cAMP SPA immunoassay on RINm5f membranes; type: biochemical; conditions: read-out: GLP-1 Cyclase EC50, 20 minutes at 37° C., supernatant cAMP
T1 construct: host or cells: RINm5f cells (membranes/homogenate)
T1 sequence (P32301 22-463): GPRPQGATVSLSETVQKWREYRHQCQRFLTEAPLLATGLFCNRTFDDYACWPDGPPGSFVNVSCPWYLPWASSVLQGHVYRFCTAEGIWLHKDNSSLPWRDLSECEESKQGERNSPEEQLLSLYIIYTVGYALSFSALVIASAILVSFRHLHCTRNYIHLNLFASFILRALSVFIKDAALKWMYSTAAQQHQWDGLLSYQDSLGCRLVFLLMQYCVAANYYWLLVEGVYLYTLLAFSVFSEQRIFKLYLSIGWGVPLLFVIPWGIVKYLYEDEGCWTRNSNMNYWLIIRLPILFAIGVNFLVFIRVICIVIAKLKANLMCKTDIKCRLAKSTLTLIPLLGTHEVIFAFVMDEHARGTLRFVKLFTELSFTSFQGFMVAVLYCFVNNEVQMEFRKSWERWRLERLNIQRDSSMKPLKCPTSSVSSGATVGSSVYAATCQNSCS
Method: All other peptides were prepared using synthesis methods such as those described herein. All chemicals were of the highest commercial grade. The cAMP SPA immunoassay was purchased from Amersham. The radioligands were purchased from New England Nuclear (Boston, Mass.). RINm5f cells (American Type Tissue Collection, Rockville, Md.) were grown in DME/F12 medium containing 10% fetal bovine serum and 2 mM L-glutamine. […] Cells were grown to confluence then harvested and homogenized using on a Polytron homogenizer. Cell homogenates were stored frozen at −70° C. until used.
Membranes and peptides was combined in […] of assay buffer in 96 well filter-bottom plates (Millipore Corp., Bedford, Mass.). After 20 minutes incubation at 37° C., the assay was terminated by transfer of supernatant by filtration into a fresh 96 well plate using a Millipore vacuum manifold. Supernatant cAMP contents were quantitated by SPA immunoassay. Peptide samples were run in the assay as triplicate points at 7 dilutions over a concentration range of 10^−6M to 10^−12M to generate response curves. The biological activity of a particular sample was expressed as an EC50 value calculated as described above.

| Substance | plasma circulating metabolites (HPLC) [1] | Appetite Suppression ED50 [2] | pEC50 [3] |
| --- | --- | --- | --- |
| GLP-1 [7-36]NH2 | subpeptide degradants | – | – |
| HGEGTFTSDLSRQMEEAVRLFIEWLRNGGPSSGAPPPK(PEG)-NH2 (reading uncertain; also: printed as HGEGTFTSDLSRQMEEAVRLFIEWLRNGGPSSGAPPPK(PEG)-NH2) [compound 229] | – | 0.0145 mg/kg | 7.22 |
| HGEGTFTSDLSRQMEEEAVRLFIEWLRNGK(PEG)PSSGAPPPS-NH2 [224] (not fully specified; PEG linker; C-terminal amide) [compound 224] | – | weak | 8.49 |
| HGEGTFTSDLSRQMEEEAVRLFIEWLRNGK(PEG)PSSGAPPPS-NH2 [230] (not fully specified; PEG linker; C-terminal amide) [compound 230] | – | – | 6.80 |
| amylin: peptide hormone studied for comparison of plasma degradation (KCNTATCATQRLANFLVHSSNNFGAILSSTNVGSNTY; Islet amyloid polypeptide; UniProt P10997 34-70, looked up) | subpeptide degradants | – | – |
